Test results taken from the NTF2 design screens of Basanta et al. (2020).

Test: protease stability score; higher = more stable; yeast display proteolysis, trypsin and chymotrypsin;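 further: relative to predicted unfolded state with 0 unfolded-like and 1 meaning tenfold more protease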

Sequence | protease stability score
SEDEERSKLIIDLWEHTQSTGDESLIERLLDPDARSHWDGVHVHGRKATKIMIERIDYVERVDFKEIRTYDGRVEIHGTIDGNFNGRRREMEVIIFVVKVDGKWRIRSIRFT | 1.3
SEDEERTRRISKHMLELYKTGDEDTWIKEADPNTINKIHAENHRIENHGREEVHKVLVELWERLGVKHVDLKDFDMQGEKVIIFIELRAENRIVTNIIRIVIIDGKIKSIEIELRFI | 1.21
SEDEESAKFVIQLILHSLRTGDFKIIEDLLDPNARVQINGVELHGRERVHEHWERIDHIEDVRIREVSVQGDKLVLNVERREKQGDYESSTKVIIYARKVNGKWVIDEVEVR | 2.55
SEDEESFRHIIELMKHSLKTGDWRHLEKLLDPNARVHINGKESHGREEAVKAFRHTWEMLGIDHIEFKDEKIRMQGNKVHVHIDGVINVNGVELKSHFEHHIVKFNGRWHTEKLVIQLD | 1.93
SEDEESLKKFIELLFHSLHTGDWKDIHKNLDPHVRIEFNGQELHGREELIELIEELMKRFDHIHFRFRDVRIYGNKAVLETELELRVGDKSSRIDVTIIIEKVNGRWIIRRLHFK | 2.48
SEDEESMRRAMEIWEKTMETGDERIYEELVDPDVKIEINGKNFIGREDAVKVFHKLGIKVSEIREVRIIGDKMILKGEDNINGRNVDSRLITRKINGKWIIESFSIV | 1.22
SEDEESSEKAAKFWLEMLRTGDWEEFERLADPNTKTHQGDKTIHGMEIVIEILMRVKGARVDTTHVRIDVQGDFVIFDVDNILNINGVHTEIRIHLRVLKVNGRWRVKELTIKHK | 1.57
SEDEESSKFALELMWHWEKTGDEKAISELADPHTLNHVNGVDLHGRELVIHFIHHMRIKRVHLKRIEIRMIGDYLDIRIHGRVDGEINGKDRDFHTDLVLIMRKVDGRWFVKSMSVIII | 1.45
SEDEETARRIVKELLHDRLTGNEDRIRELADPDVRLIIGEFHMHGMDNFLRVLRFIYHHWRIHDTQMETHEIQGDKAYNHTIIDGEFDGKRHEWQIHILVLKVNGRWRLKTLELH | 1.84
SEDEETIEDFVKWFVRALKTGDEDTINEMIDPHVLLHINGKDYHGRELVWRHFEELGIKHTELRHLHTYNGRVELESRLIVDGRVHKVHFHARKVNGRWTVTKVEIR | 2.61
SEDEETIKRMVERWEKEFRTGDEKSYIENADPNYRLEVGDKTSIGRESVAKALDDLLRKRGVEIRDIKVHDVKIVGDFIHMDITFRGTQGDKEFDLKVILISKKVNGRWVPEHVHVH | 0.789
SEDEETLSEAIRLLLESLQTGDWRTFDKLIDPHARLVIDGKELHGRDLITTLLTHWRVEHFKIRHIEVQGEKVRIEGEVRGDIDGRKKDTHVRLTAEKINGRWLTQIVIIH | 1.98
SEDEETSEELARRFSKAMKTGDFDHLVQQLDPNVRIDINGKEMIGRERFEEDMRRLNLSNIHFITRDIKVEIQGEMLHVRIDGHTRINGKDVKTHDIWIFEKIDGRWRLKEWIVHEE | 0.913
SEDEETVHEWFEVLRRDWATGNEENLMKLLDPHARLIIDGRELHGREHIIEFLRRHREHLGVTNIHVEFHIDNRKIFNGKVEVKGTLTIRINGKEEEREVILIIEKIDGRWYIKNLEIR | 0.552
SEDEEVAERFLRLLIESLMTGDEDSFKSLLDPNDRLHIGEKHNHGRNLIVELLTRFGIELEHIELKSVEVINGRIHVNTHIRFIQGDKHIETEMRLNVDKIDGRWRLRSMHID | 1.98
SEDEEVIKKHLKEFIDVLRTGNEEMSSYLADPNARVVDENEFSHGREDMTRIVSQARLHHIHVHDFELQGDKLLLDVHVDGVINGRRRRDKFHFVWLKYNGRWFLHSVHIR | 0.652
SEDEEVLEWAIKIVILALKTGDEDLFRKLADPTMRTEINGVILHGWKEVLRSLKELRVHHVRIERVEVINGRVHVDSREDVEFNGVRYETITHLVIEKVDGRWLMHSLKVE | 2.06
SEDEEVMKRAHELSARVMKTGDEETFRELADPDVRRNVNGVVRHGMENVIHLLRILFDEIRPRHFELTHMEVQGDKVRMEIRNDVRIGDKEVQLRVILIASKVNGRWHLQEVHVE | -0.496
SEDEEVVKEWIKVVLHSMVTGDEDDVRRLFDPHTRIEINGVLFIGRKWAETLARRVDHHHIETIEYHRSHVVDGVATVDGTFRGREEVDGRKIEHHFRIEFVIMKIDGRWVTQQMRIK | 1.56
SEDEEWAKRMADNILEFLNTGDFREFSKELDPNTILRIDGREIHGMELVETHLEHARMRVDDWEIRSVRSVNGKLDVDMRLDGKLRFDGKEHYRKTESILIILKVDGKWRIHNIHVR | 1.07
